# Experimental data: patent US20230227838A1, “ENHANCED CELL SURVIVAL AGAINST BIOTIC AND ABIOTIC STRESSES THROUGH SALICYLICK ACID-INDUCED NPR1 CONDENSATES” (priority 2020, published 2023)
# Residue numbers refer to the chain shown, from its start.
# T1: Myc-CUL3 (Arabidopsis thaliana, UniProt Q9ZVH4 1-732)
# T1 construct: also called AtCUL3A (AT1G26830); not shown: N-terminal Myc tag (pEG203)
# T1 sequence (looked up): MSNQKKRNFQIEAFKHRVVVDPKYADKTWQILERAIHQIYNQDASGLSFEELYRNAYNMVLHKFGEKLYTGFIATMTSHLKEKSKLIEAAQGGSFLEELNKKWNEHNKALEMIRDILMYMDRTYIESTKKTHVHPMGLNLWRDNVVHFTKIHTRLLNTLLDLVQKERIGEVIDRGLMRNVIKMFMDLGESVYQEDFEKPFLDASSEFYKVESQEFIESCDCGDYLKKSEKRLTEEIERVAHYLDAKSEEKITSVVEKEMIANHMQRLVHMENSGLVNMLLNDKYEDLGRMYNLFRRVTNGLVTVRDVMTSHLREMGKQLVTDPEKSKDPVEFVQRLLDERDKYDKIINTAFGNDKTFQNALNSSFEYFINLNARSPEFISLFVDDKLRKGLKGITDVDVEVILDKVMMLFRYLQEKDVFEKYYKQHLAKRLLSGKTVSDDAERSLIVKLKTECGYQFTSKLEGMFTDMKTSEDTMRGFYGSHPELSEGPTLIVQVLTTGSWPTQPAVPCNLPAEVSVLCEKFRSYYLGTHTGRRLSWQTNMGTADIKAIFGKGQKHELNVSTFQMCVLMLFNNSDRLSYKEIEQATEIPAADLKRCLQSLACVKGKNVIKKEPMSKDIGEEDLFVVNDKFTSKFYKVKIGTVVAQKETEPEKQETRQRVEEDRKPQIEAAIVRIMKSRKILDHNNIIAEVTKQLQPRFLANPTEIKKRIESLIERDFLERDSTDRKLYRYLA
# B1: NPR1-HA (other)
# chain: MDTTIDGFADSYEISSTSFVATDNTDSSIVYLAAEQVLTGPDVSALQLLSNSFESVFDSPDDFYSDAKLVLSDGREVSFHRCVLSARSSFFKSALAAAKKEKDSNNTAAVKLELKEIAKDYEVGFDSVVTVLAYVYSSRVRPPPKGVSECADENCCHVACRPAVDFMLEVLYLAFIFKIPELITLYQRHLLDVVDKVVIEDTLVILKLANICGKACMKLLDRCKEIIVKSNVDMVSLEKSLPEELVKEIIDRRKELGLEVPKVKKHVSNVHKALDSDDIELVKLLLKEDHTNLDDACALHFAVAYCNVKTATDLLKLDLADVNHRNPRGYTVLHVAAMRKEPQLILSLLEKGASASEATLEGRTALMIAKQATMAVECNNIPEQCKHSLKGRLCVEILEQEDKREQIPRDVPPSFAVAADELKMTLLDLENRVALAQRLFPTEAQAAMEIAEMKGTCEFIVTSLEPDRLTGTKRTSPGVKIAPFRILEEHQSRLKALSKTVELGKRFFPRCSAVLDQIMNCEDLTQLACGEDDTAEKRLQKKQRYMEIQETLKKAFSEDNLELGNSSLTDSTSSTSKSTGGKRSNRKLSHRRR
# notes: Full-length wild-type NPR1, transiently expressed in N. benthamiana; also called HA-fused NPR1; WT NPR1; not shown: C-terminal HA tag (pLN462)
# B2: rdr2: NPR1 with cysteine cluster of RDR2 mutated (C378/385/394A) (protein)
# chain: B1 chain with C378A, C385A, C394A
# modifications: A. thaliana npr1 rdr2 protein
# B3: rdr1: NPR1 with cysteine cluster of RDR1 mutated (C150/155/156/160A) (protein)
# chain: B1 chain with C150A, C155A, C156A, C160A
# modifications: A. thaliana npr1 rdr1 protein
# B4: sim3-HA (other)
# chain: B1 chain with I345A, L346A, L348A
# notes: SUMOylation-deficient mutant of NPR1; also called npr1sim3; HA-fused sim3; not shown: C-terminal HA tag (pLN462)
# B5: rdr1-HA (other)
# chain: B1 chain with C150A, C155A, C156A, C160A
# notes: not shown: C-terminal HA tag (pLN462)
# B6: rdr2-HA (other)
# chain: B1 chain with C378A, C385A, C394A
# notes: as for B5
# B7: ACTD: NPR1 with the C-terminal domain (CTD) deleted (protein)
# chain: MDTTIDGFADSYEISSTSFVATDNTDSSIVYLAAEQVLTGPDVSALQLLSNSFESVFDSPDDFYSDAKLVLSDGREVSFHRCVLSARSSFFKSALAAAKKEKDSNNTAAVKLELKEIAKDYEVGFDSVVTVLAYVYSSRVRPPPKGVSECADENCCHVACRPAVDFMLEVLYLAFIFKIPELITLYQRHLLDVVDKVVIEDTLVILKLANICGKACMKLLDRCKEIIVKSNVDMVSLEKSLPEELVKEIIDRRKELGLEVPKVKKHVSNVHKALDSDDIELVKLLLKEDHTNLDDACALHFAVAYCNVKTATDLLKLDLADVNHRNPRGYTVLHVAAMRKEPQLILSLLEKGASASEATLEGRT
# modifications: left off: small tags and cut ends
# notes: NPR1 with the C-terminal domain (CTD) deleted
# Legend:
# [1] = target: T1, Myc-CUL3; assay: co-IP, co-expression in N. benthamiana, 1 mM SA
# [2] = tested on: cytoplasmic condensates (SINCs); assay: Confocal imaging of localization and condensate (body) formation of GFP-fused NPR proteins and variants; type: cell-based, Nicotiana benthamiana; conditions: no SA treatment / mock
# Method: (§1) Plant transformation: For plant transformations, the Agrobacterium tumefaciens strain GV3101 was transformed with plant binary vectors carrying the indicated transgenes. For stable expression in Arabidopsis, a floral dipping method was used. For transient expression in N benthamiana, the Agrobacterium carrying the indicated construct was cultured overnight at 28° C. in Luria-Bertani (LB) broth medium supplemented with appropriate antibiotics: spectinomycin (100 μg/ml), kanamycin (50 μg/ml), gentamycin (50 μg/ml), and rifampicin (25 μg/ml). The obtained culture was re-inoculated at 1:10 into fresh growth media with antibiotics and grown for another 4 hr. Cells were then spun down at 1,600 g for 10 min, and inoculum was prepared by resuspending cells to OD600 nm=1 in double distilled water (DDW) containing 200 μM acetosyringone (Sigma). Unless otherwise stated, for co-IP, co-localization, and BiFC assays in N. benthamiana, the proteins were co-expressed at 1:1 mixture of the relevant Agrobacteria inoculums. In all BiFC assays, the pair of YN/YC fusions was co-expressed together with free mCherry to mark the cytoplasm and nucleus, mCherry-NLS to mark the nucleus only, or mCherry-fused test proteins for co-localization analysis. The inoculum was pressure infiltrated into N. benthamiana leaves at the abaxial side using 1 ml syringe without the needle. Due to low overall levels of NPR1-GFP in transgenic plants, a transient expression assay in Arabidopsis seedlings was used to monitor NPR1-GFP subcellular localization after SA treatment (FIG. 2B). To limit the imaging time in this transient assay (2 hours), a higher baseline SA concentration had to be used. Seeds of WT (Col-0) Arabidopsis were germinated on solid half-strength Murashige and Skoog (1/2 MS) medium and grown for 4 days. Agrobacterium carrying the indicated constructs was grown overnight in LB medium supplemented with appropriate antibiotics. The obtained culture was re-inoculated at 1:10 into virulence induction medium [50.78 mM MES, 0.5% Glucose, 1.734 mM NaH2PO4, 5% of 20X-AB mix (373.9 mM NH4C1, 24.34 mM MgSO4, 40.23 mM KCl, 1.36 mM CaCl2 and 0.18 mM FeSO4·7H2O), 200 μM acetosyringone] supplemented with 25 μg/ml rifampicin and grown for another 24 hr at 28° C. to OD600=0.8 (inoculum). Seedlings were vacuum-infiltrated with the inoculum, and at 48 hpi (hours post inoculation), treatments were performed by submerging the transformed seedlings in water or SA solution at indicated concentrations for 2 hr. Entire cotyledons were sampled for microscopy.
# Confocal laser scanning microscopy. Unless otherwise indicated, all imaging data and micrographs for single protein imaging, co-localizations, BiFC and time-lapse were obtained from the transient expression in N. benthamiana using the relevant Agrobacteria strains. All imaging was done with confocal laser scanning fluorescence microscopy using Zeiss 880 airyscan inverted confocal microscope with a 40×/1.2 water correction objective. GFP (eGFP) was excited with a 488 nm argon laser and emission was collected with a 505-530 nm band pass filter. YFP was excited with an argon laser using a 514 nm beam splitter, and emission was detected with a 520-555 nm band pass filter. mCherry was excited with a 561 nm diode laser, and emission was detected with a 575-615 nm band pass filter. When eGFP/YFP were imaged together with mCherry, a spectral GASP detector was used to collect emission from eGFP/YFP. Propidium iodide (PI) was excited with 488 nm argon laser and emission was detected with a 590-620 nm band pass filter. Time-lapse imaging was carried out on live leaf tissue samples from N. benthamiana plants transiently expressing the protein of interest. Image acquisition was done in 5 min intervals for the duration of 2 hr by scanning 30 consecutive focal planes along the Z-axis covering the entire thickness of an epidermal cell. Z-projection was done to each time frame stack before composing a final time-lapse file. […]
# [3] = tested on: CUL3; assay: Co-IP of Myc-CUL3 with HA-fused NPR1 or variants; type: binding, Arabidopsis thaliana; conditions: for CUL3 pull-down signal in co-IP: 1 mM SA for 5 hr
# Method: as §1
# Protein analysis and IP. Recombinant protein analysis was performed using transient expression in N. benthamiana, or stable over-expression in transgenic Arabidopsis, or expression in E. coli. Total protein extraction from plants was performed by homogenizing leaf tissue in the plant extraction buffer [50 mM Tris-HCl (pH 7.5), 150 mM NaCl, 5 mM EDTA, 0.2% Triton X-100, 0.2% Nonidet P-40] supplemented with 1 mM PMSF, 100 μM MG132, and EDTA-free protease inhibitor cocktail (Roche). For ubiquitinated protein analysis in plants, 100 μM of DUB (deubiquitinase) inhibitor (LifeSensors) and 10 mM NEM were added. Next, the lysates were cleared by centrifugation at 14,000 rpm for 15 min followed by filtering through a 0.2 μm filter. […] Pull-downs or IP experiments were done on total protein extracts by incubating protein samples in the lysis buffer overnight with indicated affinity tag or antibody conjugated to agarose or magnetic beads: GFP-trap agarose beads (Chromotek) for GFP fusions; RFP-trap agarose beads (Chromotek) for mCherry fusions; anti-HA magnetic beads (ThermoFisher) for HA tag fusions; anti-DYKDDDDK coupled magnetic agarose (ThermoFisher) for FLAG tag fusions; and glutathione magnetic agarose (ThermoFisher) for GST fusions. Unless otherwise indicated, after pull-down/IP, beads were washed 3 times and proteins were eluted by boiling in the 2×SDS sample buffer. […]
# [4] = tested on: Psm ES4326/AvrRpt2-mediated cell death; assay: Cell death (conductivity/electrolyte leakage, trypan blue) after Psm ES4326/AvrRpt2 inoculation; type: in vivo, Arabidopsis thaliana; conditions: transgenic plants expressing the mutant in npr1-2 background; 1 mM SA 24 hr before inoculation
# Method: Chemical treatment, pathogen infection and cell death assays. […] At 2 days, the bacterial colonies were scored.
# Trypan blue staining. Leaves of three-week-old Arabidopsis infected with Psm ES4326/AvrRpt2 were sampled at 1 dpi, boiled in 95% ethanol until completely bleached, followed by boiling for 3 min in a 1:1 mixture of 95% ethanol and staining solution (10 ml lactic acid, 10 ml glycerol, 10 g phenol and 10 mg trypan blue, dissolved in 10 ml DDW). The leaves were then de-stained in 2.5 g/ml chloral hydrate solution and transferred to 70% glycerol for subsequent imaging.
# [5] = target: T1, Myc-CUL3; assay: pull-down, N. benthamiana, SA dose response
# [6] = target: T1, Myc-CUL3; assay: co-IP, N. benthamiana, 1 mM SA 5 hr
molecule,measurement,setting,value
B1,binding result,[1],binds
B2,condensate formation in the absence of SA (constitutive),[2],formed cytoplasmic condensates in the absence of SA treatment
same,CUL3 pull-down signal in co-IP,[3],strong interactions with CUL3
same,protection against cell death induced by Psm ES4326/AvrRpt2 (SA-mediated survival phenotype),[4],stronger protection
B3,condensate formation in the absence of SA (constitutive),[2],formed cytoplasmic condensates in the absence of SA treatment
same,CUL3 pull-down signal in co-IP,[3],strong interactions with CUL3
same,protection against cell death induced by Psm ES4326/AvrRpt2 (SA-mediated survival phenotype),[4],no protection against cell death
B4,binding result,[5],binds
B5,binding result,[6],binds
B6,binding result,[6],binds
B7,condensate formation in the absence of SA (constitutive),[2],formed constitutive condensates
same,CUL3 pull-down in co-IP in the absence of SA,[3]; absence of SA,significantly enhanced the interaction with CUL3
